According to publication PMC7859452, “A Dimerization Site at SCR-17/18 in Factor H Clarifies a New Mechanism for Complement Regulatory Control” (Frontiers in Immunology, 2020):

Key:
[1] = target: the molecule itself; experiment: AUC; sedimentation velocity, c(s) size distribution (SEDFIT), 50,000 rpm, 20 °C, 10 mM Hepes pH 7.4, 50 mM NaCl (low salt control; data not shown); KD of dimer to monomers from integration of the c(s) peaks
[2] = target: the molecule itself; experiment: AUC; sedimentation velocity, c(s) size distribution (SEDFIT), 50,000 rpm, 20 °C, 10 mM Hepes pH 7.4, 137 mM NaCl, concentration series 0.2 – 3 mg/ml; KD of dimer to monomers from integration of the c(s) peaks

Protein	stoichiometry N [1]	Kd [2] [µM]	percent dimer [2] [%]	Kd [1] [µM]	percent dimer [1] [%]	stoichiometry N [2]
Complement Factor H SCR-17H fragment (domain or fragment, also: N-linked glycan chain, site not given here) TDCLSLPSFENAIPMGEKKDVYKAGEQVTYTCATYYKMDGASNVTCINSRWTGRPTCRDTS	2	5 ± 4	80	–	–	–
Complement Factor H SCR-16/18H fragment (domain or fragment, N-linked glycan chains on SCR-17 and SCR-18) GLPCKSPPEISHGVVAHMSDSYQYGEEVTYKCFEGFGIDGPAIAKCLGEKWSHPPSCIKTDCLSLPSFENAIPMGEKKDVYKAGEQVTYTCATYYKMDGASNVTCINSRWTGRPTCRDTSCVNPPTVQNAYIVSRQMSKYPSGERVRYQCRSPYEMFGDEEVMCLNGNWTEPPQCKDST	–	6 ± 5	60	~10	50	2
Complement Factor H SCR-18H fragment (domain or fragment, also: N-linked glycan chain, site not given here) TSCVNPPTVQNAYIVSRQMSKYPSGERVRYQCRSPYEMFGDEEVMCLNGNWTEPPQCKDST	2	37 ± 27	~50	~60	–	–
Complement Factor H SCR-17/18H fragment (domain or fragment, N-linked glycan chains on SCR-17 and SCR-18) TDCLSLPSFENAIPMGEKKDVYKAGEQVTYTCATYYKMDGASNVTCINSRWTGRPTCRDTSCVNPPTVQNAYIVSRQMSKYPSGERVRYQCRSPYEMFGDEEVMCLNGNWTEPPQCKDST	–	3 ± 1	80	2 ± 1	–	2
Complement Factor H SCR-18/20 fragment (domain or fragment, N-linked glycan chain on SCR-18) TSCVNPPTVQNAYIVSRQMSKYPSGERVRYQCRSPYEMFGDEEVMCLNGNWTEPPQCKDSTGKCGPPPPIDNGDITSFPLSVYAPASSVEYQCQNLYQLEGNKRITCRNGQWSEPPKCLHPCVISREIMENYNIALRWTAKQKLYSRTGESVEFVCKRGYRLSSRSHTLRTTCWDGKLEYPTCAKR	2	590 ± 150	–	180 ± 130	–	–
Complement Factor H SCR-16/20 fragment (domain or fragment, N-linked glycan chains on SCR-17 and SCR-18) GLPCKSPPEISHGVVAHMSDSYQYGEEVTYKCFEGFGIDGPAIAKCLGEKWSHPPSCIKTDCLSLPSFENAIPMGEKKDVYKAGEQVTYTCATYYKMDGASNVTCINSRWTGRPTCRDTSCVNPPTVQNAYIVSRQMSKYPSGERVRYQCRSPYEMFGDEEVMCLNGNWTEPPQCKDSTGKCGPPPPIDNGDITSFPLSVYAPASSVEYQCQNLYQLEGNKRITCRNGQWSEPPKCLHPCVISREIMENYNIALRWTAKQKLYSRTGESVEFVCKRGYRLSSRSHTLRTTCWDGKLEYPTCAKR	2	31 ± 14	40	90 ± 20	–	–
